From article PMC3134637
Read-outs that look alike come from different tables or passages of the source.

Experiments:
Assay in all cases: HiTS-FLIP
6xHis-mOrange-Gcn4p [1] = target: T1, 6xHis-mOrange-Gcn4p (Saccharomyces cerevisiae, UniProt P03069 1-281)
6xHis-mOrange-Gcn4p [2] = target: T1, 6xHis-mOrange-Gcn4p; remark: listed apart in the source
6xHis-mOrange-Gcn4p [3] = target: T1, 6xHis-mOrange-Gcn4p; remark: listed apart in the source
6xHis-mOrange-Gcn4p [4] = target: T1, 6xHis-mOrange-Gcn4p; remark: listed apart in the source
6xHis-mOrange-Gcn4p [5] = target: T1, 6xHis-mOrange-Gcn4p; remark: listed apart in the source
6xHis-mOrange-Gcn4p [6] = target: T1, 6xHis-mOrange-Gcn4p; remark: listed apart in the source

T1 sequence (P03069 whole entry): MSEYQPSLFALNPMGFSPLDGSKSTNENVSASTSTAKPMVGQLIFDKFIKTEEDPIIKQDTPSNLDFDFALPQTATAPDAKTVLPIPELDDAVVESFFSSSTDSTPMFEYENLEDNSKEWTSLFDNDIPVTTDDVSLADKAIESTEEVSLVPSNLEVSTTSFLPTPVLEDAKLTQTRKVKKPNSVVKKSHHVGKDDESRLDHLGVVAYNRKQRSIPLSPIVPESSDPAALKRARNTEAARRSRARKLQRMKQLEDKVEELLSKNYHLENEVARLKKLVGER

B1: 10mer ATGACTCATA (dsDNA)
DNA 1: ATGACTCATA
DNA 2: TATGAGTCAT
6xHis-mOrange-Gcn4p [1]
  binding result: binds

B2: 9mer ATGACTCAT (dsDNA)
DNA 1: ATGACTCAT
DNA 2: ATGAGTCAT
6xHis-mOrange-Gcn4p [2]
  binding result: binds

B3: adjacent half-sites ATGACGTCAT (dsDNA)
DNA 1: ATGACGTCAT
DNA 2: ATGACGTCAT
6xHis-mOrange-Gcn4p [3]
  binding result: binds

B4: 11mer flanks C,A (dsDNA)
DNA 1: CATGACTCATA
DNA 2: TATGAGTCATG
6xHis-mOrange-Gcn4p [4]
  binding result: binds

B5: consensus 7mer TGACTCA (dsDNA)
DNA 1: TGACTCA
DNA 2: TGAGTCA
6xHis-mOrange-Gcn4p [5]
  binding result: binds

B6: 11mer consensus TATGACTCATA (T,A flanks) (dsDNA)
DNA 1: TATGACTCATA
DNA 2: TATGAGTCATA
6xHis-mOrange-Gcn4p [6]
  binding result: binds

B7: 11mer flanks T,C (dsDNA)
DNA 1: TATGACTCATC
DNA 2: GATGAGTCATA
6xHis-mOrange-Gcn4p [4]
  binding result: binds

B8: 10mer TATGACTCAT (dsDNA)
DNA 1: TATGACTCAT
DNA 2: ATGAGTCATA
6xHis-mOrange-Gcn4p [1]
  binding result: binds

B9: 11mer flanks G,A (dsDNA)
DNA 1: GATGACTCATA
DNA 2: TATGAGTCATC
6xHis-mOrange-Gcn4p [4]
  binding result: binds
